{
  "source": "patent US20260356924",
  "about": "(published 2026)",
  "binders": {"B1": {"name": "V0022 (antibody, V domains shown)", "VH": "QVQLQQPGTELVKPGSSVNLSCKASGFTFTRYWMHWVKERPGHGLEWIGNINPNNGGTDFNEKFKNKATLTVHKSSTTVFIQLSSLTSEDSAVYYCARGTGTGAMDYWGQGTSVTVSS", "VL": "DVVMTQTPLSLPVSLGDQASISCRSSQSLVHNNGITYLYWYLQKPGQSPKLLIYRVSNRFSGVPDRFGGSGSGTDFTLKISRVEAEDLGVYFCFQGTHVPRTFGGGTKLEIK"}, "B2": {"name": "V0052 (antibody, V domains shown)", "VH": "not shown", "VL": "SIVMTQTPKFLLVSAGDRVTITCKASQSVSNDVAWYQQKPGQSPKLLIYYASNRCTGVPDRFTGSGYGTDFTFTISTVQAEDLAVYFCQQDYRSPLTFGAGTKLELK", "modifications": "immunopurified paired helical filament tau, hyperphosphorylated"}},
  "key": {"[1]": {"molecular_target": "T1, Tau409-426 pS416 pS422 peptide (human)", "T1 chain": "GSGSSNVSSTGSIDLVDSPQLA", "experiment": "ELISA"}, "[2]": {"molecular_target": "T2, Tau409-426 6-phospho peptide (human, not fully specified)", "T2 chain": "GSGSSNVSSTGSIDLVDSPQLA", "experiment": "ELISA"}, "[3]": {"molecular_target": "T3, Tau409-426 pS422 peptide (human)", "T3 chain": "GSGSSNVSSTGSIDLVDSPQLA", "experiment": "ELISA"}, "[4]": {"molecular_target": "T4, tau peptide 413-430 (human, phosphorylation not given)", "T4 chain": "STGSIDMVDSPQLATLAD"}, "[5]": {"molecular_target": "T5, iPHF (human, UniProt P10636)", "T5 sequence (P10636 2-758)": "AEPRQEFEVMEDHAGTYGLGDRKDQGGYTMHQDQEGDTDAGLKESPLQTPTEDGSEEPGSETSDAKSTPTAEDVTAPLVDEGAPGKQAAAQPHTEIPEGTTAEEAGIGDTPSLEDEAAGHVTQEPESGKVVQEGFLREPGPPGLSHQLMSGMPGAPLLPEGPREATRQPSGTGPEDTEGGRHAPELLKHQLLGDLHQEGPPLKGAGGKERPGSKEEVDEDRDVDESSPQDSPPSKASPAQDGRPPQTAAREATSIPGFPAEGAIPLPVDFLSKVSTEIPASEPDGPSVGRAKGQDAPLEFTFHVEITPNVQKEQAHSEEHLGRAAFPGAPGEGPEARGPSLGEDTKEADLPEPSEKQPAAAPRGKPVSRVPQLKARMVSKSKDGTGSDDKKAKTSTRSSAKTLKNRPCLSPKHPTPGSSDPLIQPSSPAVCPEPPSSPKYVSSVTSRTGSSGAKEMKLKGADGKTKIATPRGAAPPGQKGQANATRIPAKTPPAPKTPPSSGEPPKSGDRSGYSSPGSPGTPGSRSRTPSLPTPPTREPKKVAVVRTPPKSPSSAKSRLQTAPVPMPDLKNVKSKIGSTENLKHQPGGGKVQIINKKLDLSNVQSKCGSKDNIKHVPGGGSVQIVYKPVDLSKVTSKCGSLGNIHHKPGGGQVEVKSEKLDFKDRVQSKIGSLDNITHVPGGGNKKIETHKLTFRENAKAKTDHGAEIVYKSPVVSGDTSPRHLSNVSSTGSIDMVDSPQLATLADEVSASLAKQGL", "experiment": "BLI"}, "[6]": {"molecular_target": "T5, iPHF", "experiment": "SPR, KD2"}, "[7]": {"molecular_target": "T5, iPHF", "experiment": "SPR, KD1"}},
  "data": [
    {"binder": "B1", "values": [
      {"measurement": "EC50", "setting": "[1]", "result": 283, "unit": "pM"},
      {"measurement": "EC50", "setting": "[2]", "result": 302, "unit": "pM"},
      {"measurement": "EC50", "setting": "[3]", "result": 288, "unit": "pM"},
      {"measurement": "Kd", "setting": "[4]", "result": 306, "unit": "pM"}
    ]},
    {"binder": "B2", "values": [
      {"measurement": "Kd", "setting": "[5]", "result": 600, "unit": "pM"},
      {"measurement": "Kd", "setting": "[6]", "result": 2640, "unit": "pM"},
      {"measurement": "Kd", "setting": "[7]", "result": 4460, "unit": "pM"}
    ]}
  ]
}
